Data reported in patent US20150166606A1 (RA PHARMACEUTICALS, published 2015).
Numbered stars: 1 amine (or outer) side, 2 acyl side, 3 side chain; on linkers, the order of the positions; unused ones are H or OH. Bridge positions count the residues as written; N and C are the ends. Square brackets hold non-standard residues; d marks the D form. Primed or numbered codes have the meaning given here. Ends that are not written are not given here. * marks the point of attachment. mXylyl = xylyl linker from dibromoxylene joining the two cysteines; mXylyl″ = dibromoxylene linker (meta) joining the cysteines; 4‑BZA = 2-amino-3-(4-carbamimidoylphenyl)propanoic acid; des‑NH2 = missing amino-terminal amine group; pXylylene = c1cc(C[*:2])ccc1C[*:1]; NMeR = CN[C@@H](CCCNC(=N)N)C(=O)O; dPhg = N[C@@H](C(=O)O)c1ccccc1; Chg = N[C@H](C(=O)O)C1CCCCC1; Phg = N[C@H](C(=O)O)c1ccccc1; Tle = CC(C)(C)[C@H](N)C(=O)O; αMeP = C[C@@]1(C(=O)O)CCCN1; NMeS = CN[C@@H](CO)C(=O)O; 3‑BZA = not defined here; Heptanoyl = CCCCCCC(=O)*; Orn = NCCC[C@H](N)C(=O)O; Ac5c = NC1(C(=O)O)CCCC1; Thp = NC1(C(=O)O)CCOCC1; Ac4c = NC1(C(=O)O)CCC1; Ac3c = NC1(C(=O)O)CC1; Aib = CC(C)(N)C(=O)O; AEA = NCCOCC(=O)O; Mpa = O=C(O)CCS

B1: R2171 (peptide)
peptide: CESICRV-NH2
modifications: linker 1-5 via mXylyl″; not fully specified (residues 1, 6, N-terminus); printed as [mXylyl(1,5)](des-NH2)C-ESIC-r-V-NH2
B2: R2156 (peptide)
peptide: [Mpa]SICRV-NH2
modifications: linker 1-4 via pXylylene
SMILES: CC[C@H](C)[C@@H]1NC(=O)[C@H](CO)NC(=O)CCSCc2ccc(cc2)CSC[C@@H](C(=O)N[C@@H](CCCNC(=N)N)C(=O)N[C@H](C(N)=O)C(C)C)NC1=O
B3: R2179 (peptide)
peptide: [Mpa][Thp]A[Chg]C[3‑BZA]V-NH2
modifications: linker 1-5 via mXylyl; reading uncertain; also: printed as [mXylyl(1,5)](des-NH2)C-AcPyr-A-Chg-C-(3-BZA)-V-NH2

Biological target: Activated human plasma kallikrein (Enzyme Research Laboratories, HPKa 1303) (human, UniProt P03952 20-638)
Experiment: cell-based or functional assay

Chain of Activated human plasma kallikrein (Enzyme Research Laboratories, HPKa 1303) (P03952 20-638 limits assumed): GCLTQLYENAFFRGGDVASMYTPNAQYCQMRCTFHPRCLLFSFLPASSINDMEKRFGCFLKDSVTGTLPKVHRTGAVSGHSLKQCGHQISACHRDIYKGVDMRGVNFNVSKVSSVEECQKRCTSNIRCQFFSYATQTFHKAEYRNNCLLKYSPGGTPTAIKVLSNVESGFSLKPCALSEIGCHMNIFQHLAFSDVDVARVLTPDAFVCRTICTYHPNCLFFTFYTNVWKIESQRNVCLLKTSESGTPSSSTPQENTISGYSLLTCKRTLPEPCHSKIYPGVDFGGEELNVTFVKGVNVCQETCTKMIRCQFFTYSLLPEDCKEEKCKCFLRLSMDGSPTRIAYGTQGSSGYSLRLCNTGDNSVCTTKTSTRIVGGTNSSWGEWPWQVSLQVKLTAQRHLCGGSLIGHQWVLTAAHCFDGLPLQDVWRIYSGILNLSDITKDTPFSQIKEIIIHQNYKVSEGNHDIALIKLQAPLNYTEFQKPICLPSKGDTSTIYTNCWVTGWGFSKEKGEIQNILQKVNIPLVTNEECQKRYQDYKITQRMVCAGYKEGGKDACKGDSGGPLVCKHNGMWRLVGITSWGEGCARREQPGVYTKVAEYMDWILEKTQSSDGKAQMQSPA

Row | Binder | Avg. IC50
1 | [Mpa][Ac5c][Chg]CK[Tle]-NH2 (linker 1-4 via mXylyl) [R2174] | 870 nM
2 | [Mpa][Aib]A[Chg]CR[Tle]LRYC-NH2 (linker 1-5-11 via 1,3,5‑Xylyl) [R2158] | 2340 nM
3 | {des‑NH2}-C[Ac5c]A[Phg]CR[Tle]-NH2 (linker 1-5 via mXylyl) [R2150] | 0.764 nM
4 | [Mpa][Ac5c]A[Chg]CRV-OH (linker 1-5 via mXylyl) [R2175] | 379 nM
5 | B1 | > 100000 nM
6 | [Mpa]SICRV-NH2 (linker 1-4 via mXylyl) [R2155] | 66.3 nM
7 | {des‑NH2}-C[Ac5c]A[dPhg]CR[Tle]-NH2 (linker 1-5 via mXylyl) [R2149] | 177 nM
8 | [Mpa][Aib]A[Chg]CR[Tle]PC-NH2 (linker 1-5-9 via 1,3,5‑Xylyl) [R2157] | > 14300 nM
9 | [Mpa][Ac5c]A[Chg]CR[Tle]-NH2 (linker 1-5 via mXylyl) [R2169] | 1.9 nM
10 | Ac-[Chg]CRVAC-NH2 (linker 2-6 via mXylyl) [R2159] | > 20100 nM
11 | CXAGCRV ([mXylyl(1,5)](des-NH2)C-(Cyclo-L)-A-Chg-CR-V-NHCH3) [R2178] | 3.2 nM
12 | Ac-[Chg]CRVPC-NH2 (linker 2-6 via mXylyl) [R2160] | > 100000 nM
13 | [Mpa][Aib]A[Chg]CR-{2‑amino‑3,3‑dimethylbutan‑1‑ol} (linker 1-5 via mXylyl) [R2162] | 466 nM
14 | [Mpa][Ac4c][Chg]CR[Tle]-NH2 (linker 1-4 via mXylyl) [R2181] | 18.5 nM
15 | [Mpa][Ac5c][Chg]CR[Tle]-NH2 (linker 1-4 via mXylyl) [R2168] | 11.3 nM
16 | {des‑NH2}-C[NMeS][Chg]CR[Tle]-NH2 (linker 1-4 via mXylyl) [R2165] | 82.1 nM
17 | [Mpa][Aib][Chg]CR[Tle]-NH2 (linker 1-4 via mXylyl) [R2176] | 15.2 nM

Row | Binder | Avg. IC50
18 | XSICRV (not fully specified; [mXylyl(1,4)](2-SAc)-SICRV-NH2) [R2154] | > 7930 nM
19 | [Mpa]ESIC[Orn]V-NH2 (linker 1-5 via mXylyl) [R2172] | > 100000 nM
20 | {des‑NH2}-C[αMeP][Chg]CR[Tle]-NH2 (linker 1-4 via mXylyl) [R2180] | 6.8 nM
21 | {des‑NH2}-C[Aib]A[Chg]CR-OH (linker 1-5 via mXylyl) [R2153] | > 8880 nM
22 | {des‑NH2}-CS[Chg]CR[Tle]-NH2 (linker 1-4 via mXylyl) [R2164] | 10.1 nM
23 | {des‑NH2}-C[Aib]A[Chg]CR-{3,3‑dimethylbutan‑2‑amine} (linker 1-5 via mXylyl) [R2152] | 319 nM
24 | Heptanoyl-C[dA][NMeS][Chg]CR[Tle]-NH2 (linker 1-5 via mXylyl) [R2148] | 28.8 nM
25 | B2 | 1530 nM
26 | [Mpa][Ac3c][Chg]CR[Tle]-NH2 (linker 1-4 via mXylyl) [R2177] | 34.1 nM
27 | [Mpa][Thp][Chg]CR[Tle]-NH2 (linker 1-4 via mXylyl) [R2182] | 13.5 nM
28 | [Mpa]SICRV-NH2 (linker 1-4 via oXylyl) [R2161] | 2230 nM
29 | MCESIC[NMeR]V-NH2 (linker 2-6 via mXylyl) [R2163] | 1960 nM
30 | [Mpa][Thp]A[Chg]C[4‑BZA]V-NH2 (linker 1-5 via mXylyl) [R2166] | 310 nM
31 | [Mpa][Ac5c]A[Chg]CR[Tle]LRY-NH2 (linker 1-5 via mXylyl) [R2170] | 2.1 nM
32 | {des‑NH2}-CP[Chg]CR[Tle]-NH2 (linker 1-4 via mXylyl) [R2167] | 10.7 nM
33 | {des‑NH2}-C[AEA][Phg]CR[Tle]-NH2 (linker 1-4 via mXylyl) [R2151] | 1940 nM
34 | B3 | > 8230 nM
